From paper PMC4894451 (Scientific Reports, 2014)

Target: the molecule itself
Assay: SEC

B1: DepH from Chromobacterium violaceum No. 968 (enzyme)
chain: not shown
stoichiometry N: 2
